These are literature values, as cited in PMC5837126.

In the data set the target is IL-2Rβγc (intermediate-affinity IL-2R) (Homo sapiens) (UniProt P14784).
Sequence of UniProt P14784 (P14784 27-240, chain 1 of 2): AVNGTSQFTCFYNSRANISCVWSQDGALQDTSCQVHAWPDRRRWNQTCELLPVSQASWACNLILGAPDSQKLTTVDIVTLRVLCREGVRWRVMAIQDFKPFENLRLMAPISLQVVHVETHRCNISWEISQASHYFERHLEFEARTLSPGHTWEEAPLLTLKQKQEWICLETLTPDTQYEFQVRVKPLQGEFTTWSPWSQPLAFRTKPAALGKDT
Sequence of UniProt P14784 (P31785 23-262, chain 2 of 2, further chain): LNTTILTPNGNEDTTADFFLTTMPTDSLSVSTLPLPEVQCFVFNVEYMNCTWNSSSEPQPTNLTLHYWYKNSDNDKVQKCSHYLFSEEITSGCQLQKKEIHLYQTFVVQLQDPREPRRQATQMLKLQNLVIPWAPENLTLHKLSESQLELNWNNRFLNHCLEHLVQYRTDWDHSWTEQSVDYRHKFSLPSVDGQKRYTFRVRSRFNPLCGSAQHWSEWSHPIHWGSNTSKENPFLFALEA

For IL-2 (from UniProt P60568), the Kd was 1 nM.

In general, Kd refers to the equilibrium constant for the complex coming apart.
